The numbers were not newly measured in patent US10543287, which cites them from elsewhere.

The test system of data set [1] is rag2 ZFN pair (FokI) (synthetic construct). Kind of data set: cell_activity. The conditions noted are these: CITED ref 58 somatic mutation rate in zebrafish embryos, mutant lines obtained here (Table 1), half-sites only highlighted in figure.
The subject of data set [2] is jak3 ZFN pair (FokI) (synthetic construct). Kind of data set: cell_activity. The conditions noted are these: CITED ref 58 somatic mutation rate in zebrafish embryos, mutant lines obtained here (Table 1), half-sites only highlighted in figure.

Take “CCATGATCTTCTGCTCCAGGGGTGAAGGTGGACACTG (double strand) [rag2 ZFN target]”: the activity in data set [1] was 7.7%.

For the sequence “TATTTCTGCGCAGAAGTGGCCCCACCAAGCCTGCTGGAGGACATACAGAATTA (double strand) [jak3 ZFN target]”, the activity in data set [2] was 1.4%.
